The assay addresses T1, IL-1R1 (mouse IL-1R complex on HEK-Blue-IL1R cells) (mouse) (UniProt P13504).
T1 sequence: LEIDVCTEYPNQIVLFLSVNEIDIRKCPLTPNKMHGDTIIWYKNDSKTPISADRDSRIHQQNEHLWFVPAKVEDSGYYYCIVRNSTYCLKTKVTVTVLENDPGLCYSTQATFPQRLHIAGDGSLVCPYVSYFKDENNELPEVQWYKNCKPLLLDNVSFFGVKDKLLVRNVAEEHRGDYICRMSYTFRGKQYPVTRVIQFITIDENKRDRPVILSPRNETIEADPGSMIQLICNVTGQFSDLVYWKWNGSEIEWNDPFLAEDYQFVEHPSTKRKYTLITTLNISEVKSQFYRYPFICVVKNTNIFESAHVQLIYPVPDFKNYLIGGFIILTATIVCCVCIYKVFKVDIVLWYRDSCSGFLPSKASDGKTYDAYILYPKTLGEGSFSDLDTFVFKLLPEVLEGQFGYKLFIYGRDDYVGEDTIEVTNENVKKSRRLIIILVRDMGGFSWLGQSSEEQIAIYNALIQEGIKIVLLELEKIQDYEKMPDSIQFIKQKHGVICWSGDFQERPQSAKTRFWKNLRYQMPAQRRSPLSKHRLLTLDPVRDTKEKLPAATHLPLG

For “human IL-1β mutant Q148G (from UniProt P01584 117-269) (ligand)”, the NF-κB-driven expression of a luciferase reporter in HEK-Blue-IL1R cells; fold reduction in activity compared with WT IL-1β is 168 fold.

(Values after publication PMC7378068.)
